Measurements published in patent US20110166074A1.

Legend:
[1] = molecular target: mannose 6-phosphate receptor (MPR) on cultured rat cerebellar granule neurons (rat) (UniProt P70580); assay: cell-based or functional assay
[2] = molecular target: Cy3-labeled Alzheimer's amyloid-beta fibrils

UniProt P70580, sequence (P70580 whole entry): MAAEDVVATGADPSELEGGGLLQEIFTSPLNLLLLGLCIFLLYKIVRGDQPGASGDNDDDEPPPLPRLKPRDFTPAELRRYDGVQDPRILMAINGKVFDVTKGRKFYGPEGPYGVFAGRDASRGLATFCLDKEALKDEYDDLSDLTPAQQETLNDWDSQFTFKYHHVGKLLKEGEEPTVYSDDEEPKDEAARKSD

EC50 of M6P inhibitable uptake into rat cerebellar granule neurons (intracellular TPP1 activity) [1]: 6 to 8 nM
B1: recombinant human CLN2 protein produced in CHO cells (proCLN2, 65 KDa precursor) (protein)
chain: SYSPEPDQRRTLPPGWVSLGRADPEEELSLTFALRQQNVERLSELVQAVSDPSSPQYGKYLTLENVADLVRPSPLTLHTVQKWLLAAGAQKCHSVITQDFLTCWLSIRQAELLLPGAEFHHYVGGPTETHVVRSPHPYQLPQALAPHVDFVGGLHRFPPTSSLRQRPEPQVTGTVGLHLGVTPSVIRKRYNLTSQDVGSGTSNNSQACAQFLEQYFHDSDLAQFMRLFGGNFAHQASVARVVGQQGRGRAGIEASLDVQYLMSAGANISTWVYSSPGRHEGQEPFLQWLMLLSNESALPHVHTVSYGDDEDSLSSAYIQRVNTELMKAAARGLTLLFASGDSGAGCWSVSGRHQFRPTFPASSPYVTTVGGTSFQEPFLITNEIVDYISGGGFSNVFPRPSYQEEAVTKFLSSSPHLPPSSYFNASGRAYPDVAALSDGYWVVSNRVPIPWVSGTSASTPVFGGILSLINEHRILSGRPPLGFLNPRLYQQHGAGLFDVTRGCHESCLDEEVEGQGFCSGPGWDPVTGWGTPNFPALLKTLLNP
percent of Cy3-fAβ degraded in microglia at 12.5 nM CLN2 (against mannose-6-phosphate control) [2]: insignificant (2%) degradation at 12.5 nM
percent of Cy3-fAβ degraded in microglia at 25 nM CLN2 (against mannose-6-phosphate control) [2]: 19% at 25 nM
percent of Cy3-fAβ degraded in microglia at 50 nM CLN2 (against mannose-6-phosphate control) [2]: 22% degradation at 50 nM CLN2
percent of Cy3-fAβ degraded in microglia at 100 nM CLN2 (against mannose-6-phosphate control) [2]: -30% degradation of the Cy3-fAβ when 100 nM of CLN2 was added to microglia
